Laboratory results reported in the Human Domainome abundance scans (Beltran et al. 2025).
± gives the uncertainty stated by the source.

B1: Gamma-crystallin D, residues 90 to 170; numbered along this chain, P07320 (parent)
chain: IRLYEREDYRGQMIEFTEDCSCLQDRFRFNEIHSLNVLEGSWVLYELSNYRGRQYLLMPGDYRRYQDWGATNARVGSLRRV

Variants of: B1
Assay: abundance fitness (aPCA) (normalised: wild type 0, dead -1); higher = more abundant; growth selection in yeast, the domain comes from the species named
Conditions: Homo sapiens

| Variant | abundance fitness |
| --- | --- |
| G52D | -0.775 ± 0.25 |
| G52N | -0.705 ± 0.31 |
| G52M | -0.57 ± 0.23 |
| G52C | -0.421 ± 0.12 |
| G52I | -0.943 ± 0.32 |
| G52V | -0.919 ± 0.13 |
| G52K | -0.849 ± 0.27 |
| G52R | -0.51 ± 0.093 |
| G52F | -0.583 ± 0.47 |
| G52H | -0.43 ± 0.19 |
| G52W | -0.697 ± 0.11 |
| G52T | -1.07 ± 0.3 |
| G52A | -0.489 ± 0.072 |
| G52S | -0.389 ± 0.08 |
| G52L | -0.432 ± 0.1 |
| G52Q | -0.599 ± 0.23 |
| G52E | -0.493 ± 0.073 |
| P59E | -0.005 ± 0.1 |
| P59F | -0.353 ± 0.22 |
| P59Y | -0.222 ± 0.34 |
| P59W | -0.083 ± 0.12 |
| P59G | 0.065 ± 0.076 |
| P59K | -0.118 ± 0.13 |
| P59C | 0.011 ± 0.15 |

| Variant | abundance fitness |
| --- | --- |
| P59R | -0.088 ± 0.073 |
| P59S | -0.007 ± 0.079 |
| P59V | -0.099 ± 0.068 |
| P59H | -0.052 ± 0.24 |
| P59L | -0.085 ± 0.082 |
| P59M | -0.037 ± 0.13 |
| P59A | 0.088 ± 0.092 |
| P59Q | 0.05 ± 0.13 |
| P59N | -0.027 ± 0.15 |
| P59I | -0.157 ± 0.38 |
| P59D | 0.14 ± 0.15 |
| Y50R | -0.19 ± 0.081 |
| Y50S | -0.501 ± 0.13 |
| Y50M | -0.144 ± 0.14 |
| Y50N | 0.003 ± 0.16 |
| Y50V | -0.979 ± 0.19 |
| Y50W | -0.283 ± 0.12 |
| Y50Q | -0.197 ± 0.14 |
| Y55T | 0.187 ± 0.14 |
| Y55S | 0.126 ± 0.12 |
| Y55P | -1.07 ± 0.17 |
| Y55C | -0.061 ± 0.5 |
| Y55W | -0.001 ± 0.11 |
| Y55Q | -0.006 ± 0.14 |

| Variant | abundance fitness |
| --- | --- |
| Y55M | -0.039 ± 0.18 |
| Y55V | 0.082 ± 0.11 |
| Y55K | 0.087 ± 0.12 |
| Y55G | 0.017 ± 0.066 |
| Y55D | -0.23 ± 0.18 |
| Y55H | -0.018 ± 0.27 |
| Y55F | -0.044 ± 0.18 |
| Y55L | 0.107 ± 0.082 |
| Y55R | 0.014 ± 0.081 |
| Y55I | 0.298 ± 0.22 |
| Y55E | 0.241 ± 0.1 |
| R53P | 0.039 ± 0.091 |
| R53Q | 0.085 ± 0.12 |
| R53H | 0.062 ± 0.25 |
| R53V | -0.056 ± 0.088 |
| R53K | 0.038 ± 0.19 |
| R53E | -0.046 ± 0.1 |
| R53S | 0.059 ± 0.092 |
| R53A | 0.068 ± 0.12 |
| R53Y | 0.026 ± 0.24 |
| R53W | -0.266 ± 0.11 |
| R53C | -0.137 ± 0.15 |
| R53G | 0.015 ± 0.064 |
| R53M | -0.045 ± 0.099 |

| Variant | abundance fitness |
| --- | --- |
| R53I | -0.158 ± 0.18 |
| G60H | -0.225 ± 0.2 |
| G60K | 0.029 ± 0.12 |
| G60E | 0.155 ± 0.09 |
| G60D | -0.08 ± 0.15 |
| G60A | -0.038 ± 0.069 |
| G60N | -0.167 ± 0.34 |
| G60L | -0.197 ± 0.064 |
| G60F | -0.188 ± 0.2 |
| G60M | -0.128 ± 0.11 |
| G60P | -0.702 ± 0.17 |
| M58H | 0.008 ± 0.18 |
| M58Y | 0.174 ± 0.2 |
| M58W | -0.118 ± 0.09 |
| M58A | 0.032 ± 0.065 |
| M58I | -0.047 ± 0.13 |
| M58S | 0.055 ± 0.072 |
| M58G | 0.093 ± 0.052 |
| M58Q | 0.066 ± 0.12 |
| M58R | -0.02 ± 0.062 |
| M58T | 0.125 ± 0.13 |
| M58C | 0.074 ± 0.12 |
| M58L | 0.015 ± 0.087 |
| M58P | 0.201 ± 0.11 |

| Variant | abundance fitness |
| --- | --- |
| M58D | 0.021 ± 0.13 |
| M58F | -0.073 ± 0.17 |
| M58V | 0.032 ± 0.063 |
| M58N | 0.037 ± 0.17 |
| M58E | 0.043 ± 0.11 |
| R51T | 0.056 ± 0.12 |
| R51V | 0.025 ± 0.082 |
| R51I | -0.321 ± 0.21 |
| R51C | -0.023 ± 0.14 |
| R51E | 0.158 ± 0.14 |
| R51Y | -0.108 ± 0.31 |
| R51L | 0.034 ± 0.075 |
| R51P | -0.951 ± 0.19 |
| R51N | 0.139 ± 0.21 |
| R51D | -0.027 ± 0.19 |
| R51Q | -0.132 ± 0.15 |
| R51F | -0.147 ± 0.17 |
| R51W | -0.471 ± 0.12 |
| R51K | -0.037 ± 0.17 |
| R51A | -0.024 ± 0.08 |
| R51H | -0.122 ± 0.28 |
| R51S | -0.039 ± 0.079 |
| R51G | 0.064 ± 0.079 |
| L56Q | -0.054 ± 0.15 |

| Variant | abundance fitness |
| --- | --- |
| L56G | 0.016 ± 0.062 |
| L56W | 0.017 ± 0.07 |
| L56C | 0.048 ± 0.12 |
| L56Y | -0.207 ± 0.15 |
| L56D | 0.294 ± 0.2 |
| L56T | 0.129 ± 0.11 |
| L56N | 0.022 ± 0.28 |
| L56A | 0.056 ± 0.075 |
| L56P | 0.124 ± 0.092 |
| L56F | 0.093 ± 0.17 |
| L56R | 0.086 ± 0.071 |
| L56K | 0.035 ± 0.13 |
| L56V | -0.027 ± 0.071 |
| L56E | -0.024 ± 0.13 |
| L56S | 0.14 ± 0.071 |
| L56M | 0.279 ± 0.12 |
| L56H | 0.13 ± 0.091 |
| L56I | 0.114 ± 0.15 |
| L57H | 0.049 ± 0.4 |
| L57T | -0.016 ± 0.17 |
| L57M | 0.029 ± 0.25 |
| L57C | -0.029 ± 0.13 |
| L57Y | -0.13 ± 0.18 |
| L57A | -0.071 ± 0.12 |

| Variant | abundance fitness |
| --- | --- |
| L57K | -0.173 ± 0.3 |
| L57W | -0.623 ± 0.13 |
| L57D | -0.971 ± 0.39 |
| L57F | -0.194 ± 0.23 |
| L57R | -0.376 ± 0.11 |
| L57E | -0.91 ± 0.19 |
| Q54Y | -0.119 ± 0.26 |
| Q54L | -0.149 ± 0.11 |
| Q54S | 0.013 ± 0.1 |
| Q54I | -0.245 ± 0.17 |
| Q54G | -0.203 ± 0.12 |
| Q54W | -0.39 ± 0.11 |
| Q54V | -0.193 ± 0.085 |
| Q54M | -0.261 ± 0.11 |
| Q54D | 0.007 ± 0.19 |
| Q54T | 0.035 ± 0.11 |
| Q54K | -0.052 ± 0.13 |
| Q54A | -0.119 ± 0.093 |
| Q54R | -0.066 ± 0.12 |
| Q54C | -0.206 ± 0.11 |
| Q54E | 0.018 ± 0.14 |
| Q54P | -0.036 ± 0.094 |
| Q54H | -0.117 ± 0.14 |
